{
  "source": "the supplement of paper PMC10567573",
  "parents": {"B1": {"name": "MTMR15 (parent)", "chain": "YVKAKKSIDKDEEFAGSSPQSSKS"}},
  "data": [
    {"variants_of": "B1", "assay": "protein stability index of a GFP-peptide fusion (GPS, HEK-293T) (PSI 1-6); higher = more stable", "settings": "c terminus: a fixed tail appended", "values": [
      {"variant": "YVKAKKSIDVDEEFAGSSPQSSKS", "protein stability index": 3.24},
      {"variant": "YVKAKKSIDRDEEFAGSSPQSSKS", "protein stability index": 3.25},
      {"variant": "YVKAKKSIDPDEEFAGSSPQSSKS", "protein stability index": 3.55},
      {"variant": "YGKAKKSIDKDEEFAGSSPQSSKS", "protein stability index": 5.2},
      {"variant": "YNKAKKSIDKDEEFAGSSPQSSKS", "protein stability index": 5.16},
      {"variant": "YWKAKKSIDKDEEFAGSSPQSSKS", "protein stability index": 4.5},
      {"variant": "YEKAKKSIDKDEEFAGSSPQSSKS", "protein stability index": 5.56},
      {"variant": "YAKAKKSIDKDEEFAGSSPQSSKS", "protein stability index": 5.13},
      {"variant": "YHKAKKSIDKDEEFAGSSPQSSKS", "protein stability index": 4.49},
      {"variant": "YMKAKKSIDKDEEFAGSSPQSSKS", "protein stability index": 4.91},
      {"variant": "YSKAKKSIDKDEEFAGSSPQSSKS", "protein stability index": 5.38},
      {"variant": "YCKAKKSIDKDEEFAGSSPQSSKS", "protein stability index": 4.52},
      {"variant": "YVKAKKSIDKDEEFAGSSPPSSKS", "protein stability index": 2.75},
      {"variant": "YVKAKKSIDKDEEFAGSSPWSSKS", "protein stability index": 3.13},
      {"variant": "YVKAKKSIDKDEEFAGSSPKSSKS", "protein stability index": 3.24},
      {"variant": "YVKAKKSIDKDEEFAGSSPVSSKS", "protein stability index": 2.84},
      {"variant": "YVKAKKSIDKDEEFAGSSPQQSKS", "protein stability index": 3.34},
      {"variant": "YVKAKKSIDKDEEFAGSSPQLSKS", "protein stability index": 2.86},
      {"variant": "YVKAKKSIDKDEEFAGSSPQYSKS", "protein stability index": 2.98},
      {"variant": "YVKAKKSIDKDEEFAGSSPQPSKS", "protein stability index": 2.95},
      {"variant": "YVKAKKSIDKDEEFAGSSPQVSKS", "protein stability index": 1.22},
      {"variant": "YVKAKKSIDKDEEFAGSSPQCSKS", "protein stability index": 3.01},
      {"variant": "YVKAKKSIDKDEEAAGSSPQSSKS", "protein stability index": 3.25},
      {"variant": "YVKAKKSIDKDEEDAGSSPQSSKS", "protein stability index": 3.45},
      {"variant": "YVKAKKSIDKDEECAGSSPQSSKS", "protein stability index": 3.43},
      {"variant": "YVKAKKSIDKDEEFAGSSPQSAKS", "protein stability index": 3.1},
      {"variant": "YVKAKKSIDKDEEFAGSSPQSDKS", "protein stability index": 3.58},
      {"variant": "YVKAEKSIDKDEEFAGSSPQSSKS", "protein stability index": 4.21},
      {"variant": "YVKAGKSIDKDEEFAGSSPQSSKS", "protein stability index": 2.9},
      {"variant": "YVKAQKSIDKDEEFAGSSPQSSKS", "protein stability index": 3.83},
      {"variant": "YVKAKKKIDKDEEFAGSSPQSSKS", "protein stability index": 3.38},
      {"variant": "YVKAKKPIDKDEEFAGSSPQSSKS", "protein stability index": 3.41},
      {"variant": "YVKAKKSIDKDEEFARSSPQSSKS", "protein stability index": 3.06},
      {"variant": "YVKAKKSPDKDEEFAGSSPQSSKS", "protein stability index": 3.77},
      {"variant": "YVKAKKSRDKDEEFAGSSPQSSKS", "protein stability index": 2.98},
      {"variant": "YVKAKKSIIKDEEFAGSSPQSSKS", "protein stability index": 2.73},
      {"variant": "YVKAKKSIPKDEEFAGSSPQSSKS", "protein stability index": 2.83},
      {"variant": "YVKAKKSIMKDEEFAGSSPQSSKS", "protein stability index": 3.01},
      {"variant": "YVKAKKSIQKDEEFAGSSPQSSKS", "protein stability index": 2.76},
      {"variant": "YVKAKKSISKDEEFAGSSPQSSKS", "protein stability index": 2.69},
      {"variant": "YVKAKKSIDKDEEFAGSSPQSSKH", "protein stability index": 3.33},
      {"variant": "YVKAKKSIDKDEEFAGSSPQSSKG", "protein stability index": 2.93},
      {"variant": "YVKAKKSIDKDEEFAGSSPQSSKA", "protein stability index": 3.29},
      {"variant": "YVKAKKSIDKDEEFAGSSPQSSKT", "protein stability index": 2.85},
      {"variant": "YVKAKKSIDKDEEFAGSSPQSSKW", "protein stability index": 3.03},
      {"variant": "YVKAKKSIDKDEEFAGSSPQSSKQ", "protein stability index": 3},
      {"variant": "YVKAKKSIDKDEEFAGSSPQSSKD", "protein stability index": 2.94},
      {"variant": "YVKAKKSIDKDEEFAGNSPQSSKS", "protein stability index": 2.9},
      {"variant": "YVKAKKSIDKDEEFAGPSPQSSKS", "protein stability index": 2.79},
      {"variant": "YVKDKKSIDKDEEFAGSSPQSSKS", "protein stability index": 3.27},
      {"variant": "YVKFKKSIDKDEEFAGSSPQSSKS", "protein stability index": 2.89},
      {"variant": "YVKGKKSIDKDEEFAGSSPQSSKS", "protein stability index": 3.42},
      {"variant": "YVKTKKSIDKDEEFAGSSPQSSKS", "protein stability index": 2.39},
      {"variant": "YVKYKKSIDKDEEFAGSSPQSSKS", "protein stability index": 3.55},
      {"variant": "YVKKKKSIDKDEEFAGSSPQSSKS", "protein stability index": 4.12},
      {"variant": "YVKAKKSIDKDEEFAGSCPQSSKS", "protein stability index": 2.75},
      {"variant": "YVKAKKSIDKDEEFAGSNPQSSKS", "protein stability index": 3.9},
      {"variant": "YVKAKKSIDKDEEFAGSEPQSSKS", "protein stability index": 3.48},
      {"variant": "YVKAKKSIDKDEEFAGSYPQSSKS", "protein stability index": 2.86},
      {"variant": "YVKAKKSIDKDEEFAGSMPQSSKS", "protein stability index": 2.59},
      {"variant": "YVLAKKSIDKDEEFAGSSPQSSKS", "protein stability index": 3.05},
      {"variant": "YVIAKKSIDKDEEFAGSSPQSSKS", "protein stability index": 3.38},
      {"variant": "YVTAKKSIDKDEEFAGSSPQSSKS", "protein stability index": 2.84},
      {"variant": "YVAAKKSIDKDEEFAGSSPQSSKS", "protein stability index": 2.87},
      {"variant": "YVKAKCSIDKDEEFAGSSPQSSKS", "protein stability index": 2.54},
      {"variant": "YVKAKQSIDKDEEFAGSSPQSSKS", "protein stability index": 3.33},
      {"variant": "YVKAKTSIDKDEEFAGSSPQSSKS", "protein stability index": 3.5},
      {"variant": "YVKAKLSIDKDEEFAGSSPQSSKS", "protein stability index": 2.55},
      {"variant": "YVKAKYSIDKDEEFAGSSPQSSKS", "protein stability index": 2.78},
      {"variant": "YVKAKRSIDKDEEFAGSSPQSSKS", "protein stability index": 3.43},
      {"variant": "YVKAKKSIDKDEQFAGSSPQSSKS", "protein stability index": 3.07},
      {"variant": "YVKAKKSIDKDERFAGSSPQSSKS", "protein stability index": 2.77},
      {"variant": "YVKAKKSIDKDEDFAGSSPQSSKS", "protein stability index": 3.49},
      {"variant": "YVKAKKSIDKDEMFAGSSPQSSKS", "protein stability index": 2.39},
      {"variant": "YVKAKKSIDKDEPFAGSSPQSSKS", "protein stability index": 2.81},
      {"variant": "YVKAKKSIDKDWEFAGSSPQSSKS", "protein stability index": 2.27},
      {"variant": "YVKAKKSIDKDIEFAGSSPQSSKS", "protein stability index": 2.41},
      {"variant": "YVKAKKSIDKDTEFAGSSPQSSKS", "protein stability index": 3.21},
      {"variant": "YVKAKKSIDKDEEFAGSSFQSSKS", "protein stability index": 2.71},
      {"variant": "YVKAKKSIDKDEEFAGSSEQSSKS", "protein stability index": 2.94},
      {"variant": "YVKAKKSIDKDEEFAGSSGQSSKS", "protein stability index": 3.43},
      {"variant": "YVKAKKSIDKVEEFAGSSPQSSKS", "protein stability index": 2.72},
      {"variant": "YVKAKKSIDKFEEFAGSSPQSSKS", "protein stability index": 2.48},
      {"variant": "YVKAKKSIDKDEEFAGSSPQSSNS", "protein stability index": 3.41},
      {"variant": "YVKAKKSIDKDEEFAGSSPQSSVS", "protein stability index": 3.85},
      {"variant": "YVKAKKSIDKDEEFAGSSPQSSYS", "protein stability index": 2.76},
      {"variant": "YVKAKKSIDKDEEFAGSSPQSSQS", "protein stability index": 3.32},
      {"variant": "YVKAKKSIDKDEEFNGSSPQSSKS", "protein stability index": 2.67},
      {"variant": "YVKAKKSIDKDEEFFGSSPQSSKS", "protein stability index": 1.91},
      {"variant": "YVKAKKSIDKDEEFMGSSPQSSKS", "protein stability index": 2.44},
      {"variant": "YVKAKKSIDKDEEFKGSSPQSSKS", "protein stability index": 2.9},
      {"variant": "EVKAKKSIDKDEEFAGSSPQSSKS", "protein stability index": 5.82},
      {"variant": "QVKAKKSIDKDEEFAGSSPQSSKS", "protein stability index": 5.48},
      {"variant": "IVKAKKSIDKDEEFAGSSPQSSKS", "protein stability index": 5.52}
    ]}
  ]
}
